Test [1] has as its target T1, soluble EGF-r purified from A431 cell membranes (Sigma, E-3641) (human, UniProt P00533 25-1210, limits assumed).
T1 construct: The BIAcore methods say that either this protein or the recombinant extracellular domain of EGFr was immobilized; also called purified A431 cell membrane-derived EGFr protein
The test can be described thus: in solution by ELISA, Scatchard analysis. Background: ELISA stands for enzyme-linked immunosorbent assay.
Procedure: After incubation, 70 μl of each mixture was transferred into the wells of 96-well microtiter plates previously coated with the same monoclonal antibody (100 μl/well, at 2 μg/ml in coating buffer) and incubated for 15 min at room temperature.

Test [2] addresses T2, human epidermal growth factor receptor (EGF-r) on the surface of human carcinoma cells (A431, SW948, … (human, UniProt P00533 25-1210)).
T2 construct: whole, on cells; also called surface expressed EGF-r
The test can be described thus: inhibition of 125I-EGF binding to A431 cells (FIG. 36).

Test [3] has as its target T1, soluble EGF-r purified from A431 cell …. The test can be described thus: BIAcore, solid phase, antigen immobilized at 228 RU. (SPR reads the build-up and loss of mass on a sensor chip optically.)
Procedure: Determination of affinity constants of fully human Mabs by BIAcore: Affinity measurement of purified human monoclonal antibodies, Fab fragments, or hybridoma supernatants by plasmon resonance was carried out using the BIAcore 2000 instrument, using general procedures outlined by the manufacturers.
Based upon the general procedures outlined by the manufacture, kinetic analyses of the antibodies were performed using antigens immobilized onto the sensor surface at a low density. […] The dissociation (kd or koff) and association (ka or kₒₙ) rates were determined using the software provided by the manufacturer (BIA evaluation 2.1).
Test [4] concerns the target T2, human epidermal growth factor receptor …. Briefly: inhibition of [125I]EGF binding to SW948 cells.
Test [5] deals with T1, soluble EGF-r purified from A431 cell …. The test can be described thus: solid phase (BIAcore) and solution measurements.
Test [6] concerns the target T2, human epidermal growth factor receptor …. Briefly: inhibition of [125I]EGF (0.1 nM) binding to A431 cells.
Source text: The plates were washed five times, air-dried and counted in a scintillation counter.
In test [7] the target is T1, soluble EGF-r purified from A431 cell …. Briefly: BIAcore, solid phase, antigen immobilized at 818 RU.

The record followed here is US20060183887A1 (Amgen, published 2006).

B1: antibody secreted by the hybridoma E2.11 (antibody, human IgG2, V domains shown)
VH: VSGGSVSSGDYYWSWIRQPPGKGLEWIGHLYYSGNTNYNPSLKSRVTISLDTSKNQFSLKLSSVTAADTAVYYCARDFLTGSFFDYWGQGTLVTVSS
VL: TITCQASQDISNYLNWYQQKPGKAPKLLINDASDLETGVPSRISGSGSGTDFTFTISNLQPEDIATYYCQQYDSLPLTFGGGTKVEIRR
notes: Fully human IgG2 with a kappa light chain
B1 had a Kd in test [1] of 0.11 nM. For the same molecule, the “concentration at which inhibition of EGF binding begins” value (shortened to “concentration at which inhibition”) in test [2] was about 8 nM. In addition, in test [3], the Kd stood at 0.16 nM, the koff was determined as 0.0003 s⁻¹ and the kon was found to be 1.9e+06 M⁻¹ s⁻¹.

B2: antibody secreted by the hybridoma E7.6.3 (antibody, human IgG2, V domains shown)
VH: VSGGSVSSGDYYWTWIRQSPGKGLEWIGHIYYSGNTNYNPSLKSRLTISIDTSKTQFSLKLSSVTAADTAIYYCVRDRVTGAFDIWGQGTMVTSS
VL: TITCQASQDISNYLNWYQQKPGKAPKLLIYDASNLETGVPSRFSGSGSGTDFTFTISSLQPEDIATYFCQHFDHLPLAFGGGTKVEIKR
notes: Fully human IgG2 with a kappa light chain; also called E7.6.3 MAb
As for B2, the IC50 in test [4] is 0.9 nM; in test [6], 3 nM. For the same molecule, the Kd in test [5] was determined as 0.05 nM.

B3: antibody secreted by the hybridoma E1.1 (antibody, human IgG2, V domains shown)
VH: VSGGSINSGDYYWSWIRQHPGKGLDCIGYIYYSGSTYYNPSLKSRVTISVDTSKNQFFLKLTSVTAADTAVYYCARSTVVNPGWFDPWGQGTLVTVSS
VL: TITCQASQDINNYLNWFQQKPGKAPKVLIHDASNLETGGPSRFSGSGSGTDFTFTISGLQPEDIATYYCQQYESLPLTFGGGTKVEIKR
notes: as for B1
B3 had a Kd in test [1] of 0.11 nM. Moreover, the “concentration at which inhibition” value in test [2] is about 8 nM.

B4: antibody secreted by the hybridoma E2.4 (antibody, human IgG2, V domains shown)
VH: VSGGSINSGDYYWSWIRQHPGKGLEWIGSIYYSGNTFYNPSLKSRVTISLDTSKNQFSLKLSSVTAADTAVCYCARNIVTTGAFDIWGQGTMVTVSS
VL: TITCQASQDITIYLNWYQQKPGKAPKLLINDASSLETGVPLRFSGSGSGTDFTFTISSLQPEDIATYYCQQYDHLPLTFGGGTKVAIKR
notes: as for B1
As for B4, in test [1], the Kd was determined as 0.11 nM. Also, the “concentration at which inhibition” value in test [2] is about 8 nM. Further, in test [7], binding was put at a Kd of 0.035 nM, the koff was found to be 9.78e-05 s⁻¹ and the kon amounted to 2.8e+06 M⁻¹ s⁻¹.

Usually Kd stands for the free concentration of one partner at which half of the binding sites on the other are occupied at equilibrium, for simple one-to-one binding. High values mean weaker binding, low ones tighter binding. Broadly, the koff is a measure of how fast the partners let go of each other. The low end stands for a long-lived complex, the high end for a short-lived complex. As a reminder, the kon is the rate constant with which the complex forms. As a reminder, the IC50 is the concentration that gives 50% inhibition. Low values mean higher potency, high ones lower potency.
